Experimental findings from patent US20210388110A1 (published 2021) are described below.

Broadly, the Kd is the constant that tells how readily two partners part at equilibrium. A low value points to a tighter complex.

The experiment deals with T1, soluble human CD3ε chain (human, UniProt P07766 23-126, limits assumed).
T1 construct: also called human CD3 epsilon chain
The experiment can be described thus: SPR (Biacore), soluble human CD3ε chain. Background: SPR reads the build-up and loss of mass on a sensor chip optically.

T1 sequence (P07766 23-126 limits assumed): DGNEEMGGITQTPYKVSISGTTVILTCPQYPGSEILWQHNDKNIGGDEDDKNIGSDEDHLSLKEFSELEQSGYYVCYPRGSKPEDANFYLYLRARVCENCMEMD

B1: TR01H090-E22Hh/none-Hi-Kn010G3/L0011-k0 (antibody, human IgG1, kappa, L234A L235A, N297A)
heavy: QVQLVESGGGLVQPGGSLRLSCAASGFTFSNAWMHWVRQAPGKGLEWVAQIKDKSQNYATYYAESVKGRFTISRDDSKNSLYLQMNSLKTEDTAVYYCRYVHYAAGYGVDAWGQGTTVTVSSASTKGPSVFPLAPSSKSTSGGTAALGCLVKDYFPEPVTVSWNSGALTSGVHTFPAVLQSSGLYSLSSVVTVPSSSLGTQTYICNVNHKPSNTKVDKKVEPKSCDKTHTCPPCPAPEAAGGPSVFLFPPKPKDTLMISRTPEVTCVVVDVSHEDPEVKFNWYVDGVEVHNAKTKPREEQYASTYRVVSVLTVLHQDWLNGKEYKCKVSNKALPAPIEKTISKAKGQPREPQVYTLPPSRCELTKNQVSLSCAVKGFYPSDIAVEWESNGQPENNYKTTPPVLDSDGSFFLVSKLTVDKSRWQQGNVFSCSVMHEALHNHYTQKSLSLSPDYKDDDDK
chain: EPKSSDKTHTCPPCPAPELLGGPSVFLFPPKPKDTLMISRTPEVTCVVVDVSHEDPEVKFNWYVDGVEVHNAKTKPREEQYNSTYRVVSVLTVLHQDWLNGKEYKCKVSNKALPAPIEKTISKAKGQPREPQVCTLPPSRDELTKNQVSLWCLVKGFYPSDIAVEWESNGQPENNYKTTPPVLDSDGSFFLYSKLTVDKSRWQQGNVFSCSVMHEALHNRYTQKSLSLSP
light: DIVMTQSPLSLPVTPGEPASISCRSSQPLVHSNRNTYLHWYQQKPGQAPRLLIYKVSNRFSGVPDRFSGSGSGTDFTLKISRVEAEDVGVYYCGQGTQVPYTFGQGTKLEIKRTVAAPSVFIFPPSDEQLKSGTASVVCLLNNFYPREAKVQWKVDNALQSGNSQESVTEQDSKDSTYSLSSTLTLSKADYEKHKVYACEVTHQGLSSPVTKSFNRGEC
notes: one-arm antibody (single Fab) with Fab-less hinge-Fc chain Hi-Kn010G3
In turn, B1 gave a Kd of 69.5 nM.

B2: TR01H092-E22Hh/none-Hi-Kn010G3/L0011-k0 (antibody, human IgG1, kappa, L234A L235A, N297A)
heavy: QVQLVESGGGLVQPGRSLRLSCAASGFTFSNAWMHWVRQAPGKGLEWVAQIKDKSQNYATYYAESVAGRFTISRDDSKNSLYLQMNSLKTEDTAVYYCRYVHYAAGYGVDAWGQGTTVTVSSASTKGPSVFPLAPSSKSTSGGTAALGCLVKDYFPEPVTVSWNSGALTSGVHTFPAVLQSSGLYSLSSVVTVPSSSLGTQTYICNVNHKPSNTKVDKKVEPKSCDKTHTCPPCPAPEAAGGPSVFLFPPKPKDTLMISRTPEVTCVVVDVSHEDPEVKFNWYVDGVEVHNAKTKPREEQYASTYRVVSVLTVLHQDWLNGKEYKCKVSNKALPAPIEKTISKAKGQPREPQVYTLPPSRCELTKNQVSLSCAVKGFYPSDIAVEWESNGQPENNYKTTPPVLDSDGSFFLVSKLTVDKSRWQQGNVFSCSVMHEALHNHYTQKSLSLSPDYKDDDDK
chain: EPKSSDKTHTCPPCPAPELLGGPSVFLFPPKPKDTLMISRTPEVTCVVVDVSHEDPEVKFNWYVDGVEVHNAKTKPREEQYNSTYRVVSVLTVLHQDWLNGKEYKCKVSNKALPAPIEKTISKAKGQPREPQVCTLPPSRDELTKNQVSLWCLVKGFYPSDIAVEWESNGQPENNYKTTPPVLDSDGSFFLYSKLTVDKSRWQQGNVFSCSVMHEALHNRYTQKSLSLSP
light: DIVMTQSPLSLPVTPGEPASISCRSSQPLVHSNRNTYLHWYQQKPGQAPRLLIYKVSNRFSGVPDRFSGSGSGTDFTLKISRVEAEDVGVYYCGQGTQVPYTFGQGTKLEIKRTVAAPSVFIFPPSDEQLKSGTASVVCLLNNFYPREAKVQWKVDNALQSGNSQESVTEQDSKDSTYSLSSTLTLSKADYEKHKVYACEVTHQGLSSPVTKSFNRGEC
notes: as for B1
Take B2: the Kd was found to be 72.1 nM.

B3: TR01H093-E22Hh/none-Hi-Kn010G3/L0011-k0 (antibody, human IgG1, kappa, L234A L235A, N297A)
heavy: QVQLVESGGGLVQPGRSLRLSCAASGFTFSNAWMHWVRQAPGKGLEWVAQIKDKSQNYATYYAESVQGRFTISRDDSKNSLYLQMNSLKTEDTAVYYCRYVHYAAGYGVDAWGQGTTVTVSSASTKGPSVFPLAPSSKSTSGGTAALGCLVKDYFPEPVTVSWNSGALTSGVHTFPAVLQSSGLYSLSSVVTVPSSSLGTQTYICNVNHKPSNTKVDKKVEPKSCDKTHTCPPCPAPEAAGGPSVFLFPPKPKDTLMISRTPEVTCVVVDVSHEDPEVKFNWYVDGVEVHNAKTKPREEQYASTYRVVSVLTVLHQDWLNGKEYKCKVSNKALPAPIEKTISKAKGQPREPQVYTLPPSRCELTKNQVSLSCAVKGFYPSDIAVEWESNGQPENNYKTTPPVLDSDGSFFLVSKLTVDKSRWQQGNVFSCSVMHEALHNHYTQKSLSLSPDYKDDDDK
chain: EPKSSDKTHTCPPCPAPELLGGPSVFLFPPKPKDTLMISRTPEVTCVVVDVSHEDPEVKFNWYVDGVEVHNAKTKPREEQYNSTYRVVSVLTVLHQDWLNGKEYKCKVSNKALPAPIEKTISKAKGQPREPQVCTLPPSRDELTKNQVSLWCLVKGFYPSDIAVEWESNGQPENNYKTTPPVLDSDGSFFLYSKLTVDKSRWQQGNVFSCSVMHEALHNRYTQKSLSLSP
light: DIVMTQSPLSLPVTPGEPASISCRSSQPLVHSNRNTYLHWYQQKPGQAPRLLIYKVSNRFSGVPDRFSGSGSGTDFTLKISRVEAEDVGVYYCGQGTQVPYTFGQGTKLEIKRTVAAPSVFIFPPSDEQLKSGTASVVCLLNNFYPREAKVQWKVDNALQSGNSQESVTEQDSKDSTYSLSSTLTLSKADYEKHKVYACEVTHQGLSSPVTKSFNRGEC
notes: as for B1
The molecule B3 showed a Kd of 68 nM.

B4: TR01H091-E22Hh/none-Hi-Kn010G3/L0011-k0 (antibody, human IgG1, kappa, L234A L235A, N297A)
heavy: QVQLVESGGGLVQPGRSLKLSCAASGFTFSNAWMHWVRQAPGKGLEWVAQIKDKSQNYATYYAESVKGRFTISRDDSKNSLYLQMNSLKTEDTAVYYCRYVHYAAGYGVDAWGQGTTVTVSSASTKGPSVFPLAPSSKSTSGGTAALGCLVKDYFPEPVTVSWNSGALTSGVHTFPAVLQSSGLYSLSSVVTVPSSSLGTQTYICNVNHKPSNTKVDKKVEPKSCDKTHTCPPCPAPEAAGGPSVFLFPPKPKDTLMISRTPEVTCVVVDVSHEDPEVKFNWYVDGVEVHNAKTKPREEQYASTYRVVSVLTVLHQDWLNGKEYKCKVSNKALPAPIEKTISKAKGQPREPQVYTLPPSRCELTKNQVSLSCAVKGFYPSDIAVEWESNGQPENNYKTTPPVLDSDGSFFLVSKLTVDKSRWQQGNVFSCSVMHEALHNHYTQKSLSLSPDYKDDDDK
chain: EPKSSDKTHTCPPCPAPELLGGPSVFLFPPKPKDTLMISRTPEVTCVVVDVSHEDPEVKFNWYVDGVEVHNAKTKPREEQYNSTYRVVSVLTVLHQDWLNGKEYKCKVSNKALPAPIEKTISKAKGQPREPQVCTLPPSRDELTKNQVSLWCLVKGFYPSDIAVEWESNGQPENNYKTTPPVLDSDGSFFLYSKLTVDKSRWQQGNVFSCSVMHEALHNRYTQKSLSLSP
light: DIVMTQSPLSLPVTPGEPASISCRSSQPLVHSNRNTYLHWYQQKPGQAPRLLIYKVSNRFSGVPDRFSGSGSGTDFTLKISRVEAEDVGVYYCGQGTQVPYTFGQGTKLEIKRTVAAPSVFIFPPSDEQLKSGTASVVCLLNNFYPREAKVQWKVDNALQSGNSQESVTEQDSKDSTYSLSSTLTLSKADYEKHKVYACEVTHQGLSSPVTKSFNRGEC
notes: as for B1
The molecule B4 showed a Kd of 66.7 nM.

B5: TR01H095-E22Hh/none-Hi-Kn010G3/L0011-k0 (antibody, human IgG1, kappa, L234A L235A, N297A)
heavy: QVQLVESGGGLVQPGRSLRLSCAASGFTFSNAWMHWVRQAPGKGLEWVAQIKDKSQNYAFYYAESVKGRFTISRDDSKNSLYLQMNSLKTEDTAVYYCRYVHYAAGYGVDAWGQGTTVTVSSASTKGPSVFPLAPSSKSTSGGTAALGCLVKDYFPEPVTVSWNSGALTSGVHTFPAVLQSSGLYSLSSVVTVPSSSLGTQTYICNVNHKPSNTKVDKKVEPKSCDKTHTCPPCPAPEAAGGPSVFLFPPKPKDTLMISRTPEVTCVVVDVSHEDPEVKFNWYVDGVEVHNAKTKPREEQYASTYRVVSVLTVLHQDWLNGKEYKCKVSNKALPAPIEKTISKAKGQPREPQVYTLPPSRCELTKNQVSLSCAVKGFYPSDIAVEWESNGQPENNYKTTPPVLDSDGSFFLVSKLTVDKSRWQQGNVFSCSVMHEALHNHYTQKSLSLSPDYKDDDDK
chain: EPKSSDKTHTCPPCPAPELLGGPSVFLFPPKPKDTLMISRTPEVTCVVVDVSHEDPEVKFNWYVDGVEVHNAKTKPREEQYNSTYRVVSVLTVLHQDWLNGKEYKCKVSNKALPAPIEKTISKAKGQPREPQVCTLPPSRDELTKNQVSLWCLVKGFYPSDIAVEWESNGQPENNYKTTPPVLDSDGSFFLYSKLTVDKSRWQQGNVFSCSVMHEALHNRYTQKSLSLSP
light: DIVMTQSPLSLPVTPGEPASISCRSSQPLVHSNRNTYLHWYQQKPGQAPRLLIYKVSNRFSGVPDRFSGSGSGTDFTLKISRVEAEDVGVYYCGQGTQVPYTFGQGTKLEIKRTVAAPSVFIFPPSDEQLKSGTASVVCLLNNFYPREAKVQWKVDNALQSGNSQESVTEQDSKDSTYSLSSTLTLSKADYEKHKVYACEVTHQGLSSPVTKSFNRGEC
notes: as for B1
Molecule B5 registered a Kd of 90.9 nM.

B6: TR01H094-E22Hh/none-Hi-Kn010G3/L0011-k0 (antibody, human IgG1, kappa, L234A L235A, N297A)
heavy: QVQLVESGGGLVQPGRSLRLSCAASGFTFSNAWMHWVRQAPGKGLEWVAQIKDKSQNYATYYAESVSGRFTISRDDSKNSLYLQMNSLKTEDTAVYYCRYVHYAAGYGVDAWGQGTTVTVSSASTKGPSVFPLAPSSKSTSGGTAALGCLVKDYFPEPVTVSWNSGALTSGVHTFPAVLQSSGLYSLSSVVTVPSSSLGTQTYICNVNHKPSNTKVDKKVEPKSCDKTHTCPPCPAPEAAGGPSVFLFPPKPKDTLMISRTPEVTCVVVDVSHEDPEVKFNWYVDGVEVHNAKTKPREEQYASTYRVVSVLTVLHQDWLNGKEYKCKVSNKALPAPIEKTISKAKGQPREPQVYTLPPSRCELTKNQVSLSCAVKGFYPSDIAVEWESNGQPENNYKTTPPVLDSDGSFFLVSKLTVDKSRWQQGNVFSCSVMHEALHNHYTQKSLSLSPDYKDDDDK
chain: EPKSSDKTHTCPPCPAPELLGGPSVFLFPPKPKDTLMISRTPEVTCVVVDVSHEDPEVKFNWYVDGVEVHNAKTKPREEQYNSTYRVVSVLTVLHQDWLNGKEYKCKVSNKALPAPIEKTISKAKGQPREPQVCTLPPSRDELTKNQVSLWCLVKGFYPSDIAVEWESNGQPENNYKTTPPVLDSDGSFFLYSKLTVDKSRWQQGNVFSCSVMHEALHNRYTQKSLSLSP
light: DIVMTQSPLSLPVTPGEPASISCRSSQPLVHSNRNTYLHWYQQKPGQAPRLLIYKVSNRFSGVPDRFSGSGSGTDFTLKISRVEAEDVGVYYCGQGTQVPYTFGQGTKLEIKRTVAAPSVFIFPPSDEQLKSGTASVVCLLNNFYPREAKVQWKVDNALQSGNSQESVTEQDSKDSTYSLSSTLTLSKADYEKHKVYACEVTHQGLSSPVTKSFNRGEC
notes: as for B1
For the molecule B6, the Kd is 70 nM.
